Measurements as given in patent US20130102494A1 (PIERRE FABRE MEDICAMENT, published 2013).

B1: 227D3 monoclonal antibody (murine, secreted by hybridoma CNCM I-4247) (antibody, V domains shown)
VH: EVKLVESGGDLVKPGGSLQLSCAASGFTFSSYAMSWVRQTPEMRLEWVASIMGGGTTYYPDSVKGRFTISRDIARNILNLQMSSLRSEDTAIYYCARGRDYGIRSYAMDYWGQGTSVTVSS
VL: DIVMTQAAFSNPVTLGTSVSISCRSSKSLLHSNGITYLYWYLQKPGQSPQLLIYQMSNLASGVPDRFSSSGSGTDFTLRISRVEAEDVGVYYCAQNLELPYTFGGGTKLEIK
notes: Whole murine monoclonal antibody from hybridoma; mouse IgG1 isotype controls were used beside it; also called m227D3; 227D3 Mab
B2: 205A5 monoclonal antibody (murine, secreted by hybridoma CNCM I-4246) (antibody, V domains shown)
VH: QVQLKQSGPGLVQPSQSLSITCTVSGFSLTDYGIQWVRQSPGQGLEWLGVIWRGGSTDYNAPFMSRLSITKDNSKSQVFFRMNSLQADDTAIYYCATSYYRYDGPFTYWGQGTLVTVSA
VL: NIVLTQSPASLAVSLGQRATISCRASESVDSNGNSFIHWYQQKPGQPPKLLIYVASKLESGVPARFSGSGSRTDFTLTIDPVEAEDVATYYCQQNNEYPLTFGAGTKLELK
notes: Whole murine monoclonal antibody from hybridoma; mouse IgG1 isotype controls were used beside it; also called m205A5; 205A5 Mab

Biological target: T1, dimeric cMet-Fc recombinant protein (rh cMet-Fc, R&D Systems ref. 358-MT/CF) (human, UniProt P08581 25-932)
T1 construct: extracellular domain; Bought reagent; also called cMet extracellular domain fusion protein; recombinant human cMet protein; not shown: Fc part
Assay: ELISA on coated dimeric cMet-Fc
Procedure: Obtained hybridomas were initially screened by ELISA on the dimeric cMet-Fc recombinant protein. Briefly, the recombinant human cMet protein was coated overnight at 4° C. to Immulon II 96-well plates and, after a 1 h blocking step with a 0.5% gelatine solution, pure hybridoma supernatant was added for an additional 1 h at 37° C. Then plates were washed and a goat anti-mouse (Jackson) specific IgG HRP was added for 1 h at 37° C. Reaction development was performed using the TMB substrate solution. Then a second screen was performed by FACS analysis on […] cell line, that express moderate to high levels of cMet, to be sure that the produced antibodies will be able to also recognize the native receptor on tumor cells. For that purpose 2×10⁵ cells were incubated with either 10 μg/ml of m205A5, m227D3 or m10D₉ (IgG1 isotype control Mab) for 20 min at 4° C. After 3 washing in phosphate-buffered saline (PBS) supplemented with 1% BSA and 0.01% NaN₃, cells were incubated with secondary antibody Goat anti-mouse Alexa 488 (dilution 1/500) for 20 minutes at 4° C. After 3 additional washings in PBS supplemented with 1% BSA and 0.1% NaN₃, cells were analyzed by FACS (Facscalibur, Becton-Dickinson). At least 5000 cells were assessed to calculate the mean value of fluorescence intensity.

T1 sequence (P08581 25-932): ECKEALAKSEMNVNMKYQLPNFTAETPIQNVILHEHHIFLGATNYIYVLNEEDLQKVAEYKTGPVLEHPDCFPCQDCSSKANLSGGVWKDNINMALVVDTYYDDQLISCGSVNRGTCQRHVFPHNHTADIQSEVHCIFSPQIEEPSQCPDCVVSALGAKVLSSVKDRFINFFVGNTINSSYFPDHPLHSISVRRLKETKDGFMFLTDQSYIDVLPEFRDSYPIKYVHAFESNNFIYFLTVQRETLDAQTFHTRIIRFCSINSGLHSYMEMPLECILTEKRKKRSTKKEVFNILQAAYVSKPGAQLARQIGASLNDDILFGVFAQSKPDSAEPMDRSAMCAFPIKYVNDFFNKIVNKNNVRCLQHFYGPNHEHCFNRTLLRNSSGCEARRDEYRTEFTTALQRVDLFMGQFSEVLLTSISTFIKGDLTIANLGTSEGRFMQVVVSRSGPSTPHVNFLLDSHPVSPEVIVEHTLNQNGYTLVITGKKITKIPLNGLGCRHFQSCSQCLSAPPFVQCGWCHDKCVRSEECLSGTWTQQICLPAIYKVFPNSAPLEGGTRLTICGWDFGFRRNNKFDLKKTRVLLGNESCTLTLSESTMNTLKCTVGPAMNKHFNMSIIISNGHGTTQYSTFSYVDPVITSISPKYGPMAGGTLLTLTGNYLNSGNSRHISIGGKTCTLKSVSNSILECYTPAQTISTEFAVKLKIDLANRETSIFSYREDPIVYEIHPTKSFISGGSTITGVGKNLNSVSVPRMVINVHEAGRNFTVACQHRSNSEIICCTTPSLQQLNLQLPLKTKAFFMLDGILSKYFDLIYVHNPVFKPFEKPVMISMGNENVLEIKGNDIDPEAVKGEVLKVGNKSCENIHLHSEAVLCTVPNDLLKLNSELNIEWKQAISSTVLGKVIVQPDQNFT

Row | Binder | binding result
1 | B1 | binds
2 | B2 | binds
